# Tests used:
# human ferroportin 1 [1] = target: T1, human ferroportin 1 (human, UniProt Q9NP59 1-571); assay: cell-based or functional assay
# T1 sequence: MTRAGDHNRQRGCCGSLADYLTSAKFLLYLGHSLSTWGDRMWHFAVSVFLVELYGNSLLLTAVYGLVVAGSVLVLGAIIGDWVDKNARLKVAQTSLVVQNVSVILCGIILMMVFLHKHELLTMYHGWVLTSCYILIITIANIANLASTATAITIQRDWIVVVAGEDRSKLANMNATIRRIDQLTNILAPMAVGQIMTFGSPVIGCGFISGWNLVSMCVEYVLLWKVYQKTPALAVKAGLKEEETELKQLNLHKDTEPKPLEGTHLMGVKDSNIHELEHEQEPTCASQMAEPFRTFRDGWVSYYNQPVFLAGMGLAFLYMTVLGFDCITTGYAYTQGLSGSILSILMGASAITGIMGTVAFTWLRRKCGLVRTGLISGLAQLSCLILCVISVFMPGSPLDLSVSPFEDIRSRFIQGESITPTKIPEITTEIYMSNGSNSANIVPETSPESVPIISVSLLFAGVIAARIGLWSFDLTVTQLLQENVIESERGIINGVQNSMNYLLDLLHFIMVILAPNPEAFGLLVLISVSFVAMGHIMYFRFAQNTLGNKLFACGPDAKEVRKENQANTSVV
# [2] = target: T2, human FPN1 C-terminally fused with GFP (human, UniProt Q9NP59 1-571, GFP reporter fused to the C-terminus ("FPN1 is C-terminally fused with GFP"). It is left out because the patent gives no letters for it.); assay: inhibition of binding of 30 nM biotinylated hepcidin to FPN-GFP/293 cells, ELISA of lysate; control antibody at 1.2 uM; mean
# T2 sequence: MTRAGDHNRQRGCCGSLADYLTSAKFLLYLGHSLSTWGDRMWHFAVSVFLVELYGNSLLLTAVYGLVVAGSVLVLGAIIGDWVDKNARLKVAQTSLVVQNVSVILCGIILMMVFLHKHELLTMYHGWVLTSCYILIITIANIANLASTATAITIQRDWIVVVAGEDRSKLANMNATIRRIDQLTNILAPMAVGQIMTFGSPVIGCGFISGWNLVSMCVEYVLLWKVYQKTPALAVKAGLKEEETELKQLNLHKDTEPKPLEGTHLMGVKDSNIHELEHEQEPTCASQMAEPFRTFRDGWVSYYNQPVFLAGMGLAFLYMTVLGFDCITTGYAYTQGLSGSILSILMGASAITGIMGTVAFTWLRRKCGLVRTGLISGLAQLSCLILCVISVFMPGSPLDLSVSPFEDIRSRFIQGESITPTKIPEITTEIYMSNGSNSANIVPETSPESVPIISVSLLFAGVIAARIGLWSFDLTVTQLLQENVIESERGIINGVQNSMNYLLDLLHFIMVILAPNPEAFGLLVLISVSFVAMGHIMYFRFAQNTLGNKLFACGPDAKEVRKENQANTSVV
# [3] = target: T2, human FPN1 C-terminally fused with GFP; assay: inhibition of binding of 30 nM biotinylated hepcidin to FPN-GFP/293 cells, ELISA of lysate; control antibody at 6.0 uM; mean
# [4] = target: T2, human FPN1 C-terminally fused with GFP; assay: inhibition of binding of 30 nM biotinylated hepcidin to FPN-GFP/293 cells, ELISA of lysate; control antibody at 0.24 uM; mean
# [5] = target: T2, human FPN1 C-terminally fused with GFP; assay: inhibition of binding of 30 nM biotinylated hepcidin to FPN-GFP/293 cells, ELISA of lysate; control antibody at 0.048 uM; mean
# human ferroportin 1 [6] = target: T1, human ferroportin 1; assay: inhibition of binding of 30 nM biotinylated hepcidin to FPN/293 cells, ELISA of lysate; control antibody at 125 nM; mean
# human ferroportin 1 [7] = target: T1, human ferroportin 1; assay: inhibition of binding of 30 nM biotinylated hepcidin to FPN/293 cells, ELISA of lysate; control antibody at 500 nM; mean
# human ferroportin 1 [8] = target: T1, human ferroportin 1; assay: inhibition of binding of 30 nM biotinylated hepcidin to FPN/293 cells, ELISA of lysate; control antibody at 7.8 nM; mean
# human ferroportin 1 [9] = target: T1, human ferroportin 1; assay: inhibition of binding of 30 nM biotinylated hepcidin to FPN/293 cells, ELISA of lysate; control antibody at 2000 nM; mean
# human ferroportin 1 [10] = target: T1, human ferroportin 1; assay: inhibition of binding of 30 nM biotinylated hepcidin to FPN/293 cells, ELISA of lysate; control antibody at 31.25 nM; mean
# [11] = target: T2, human FPN1 C-terminally fused with GFP; assay: cell-based or functional assay
# rat ferroportin = target: T3, rat ferroportin (rat, UniProt Q923U9 1-570, limits assumed); assay: not described; told in the pharmacokinetics example
# T3 sequence (looked up): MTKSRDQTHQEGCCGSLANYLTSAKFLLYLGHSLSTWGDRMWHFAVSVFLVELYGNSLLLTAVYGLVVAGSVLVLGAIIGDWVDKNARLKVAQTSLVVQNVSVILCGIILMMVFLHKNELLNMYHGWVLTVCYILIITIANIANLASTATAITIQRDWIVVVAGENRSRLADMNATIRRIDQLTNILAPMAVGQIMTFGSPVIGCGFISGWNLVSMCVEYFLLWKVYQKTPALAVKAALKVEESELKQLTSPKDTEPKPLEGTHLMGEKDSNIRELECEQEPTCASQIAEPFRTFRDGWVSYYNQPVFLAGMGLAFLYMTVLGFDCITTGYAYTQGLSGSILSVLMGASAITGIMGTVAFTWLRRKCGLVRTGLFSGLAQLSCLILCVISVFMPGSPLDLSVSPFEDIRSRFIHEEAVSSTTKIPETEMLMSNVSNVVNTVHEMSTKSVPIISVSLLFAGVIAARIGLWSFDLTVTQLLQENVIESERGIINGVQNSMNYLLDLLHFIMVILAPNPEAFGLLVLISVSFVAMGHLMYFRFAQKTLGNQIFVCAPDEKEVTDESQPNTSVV
# human ferroportin 1 [12] = target: T1, human ferroportin 1; assay: inhibition of binding of 30 nM biotinylated hepcidin to FPN/293 cells, ELISA of lysate; antibody at 125 nM; mean
# human ferroportin 1 [13] = target: T1, human ferroportin 1; assay: inhibition of binding of 30 nM biotinylated hepcidin to FPN/293 cells, ELISA of lysate; antibody at 500 nM; mean
# human ferroportin 1 [14] = target: T1, human ferroportin 1; assay: inhibition of binding of 30 nM biotinylated hepcidin to FPN/293 cells, ELISA of lysate; antibody at 7.8 nM; mean
# human ferroportin 1 [15] = target: T1, human ferroportin 1; assay: inhibition of binding of 30 nM biotinylated hepcidin to FPN/293 cells, ELISA of lysate; antibody at 2000 nM; mean
# human ferroportin 1 [16] = target: T1, human ferroportin 1; assay: inhibition of binding of 30 nM biotinylated hepcidin to FPN/293 cells, ELISA of lysate; antibody at 31.25 nM; mean
Molecule,Absolute IC50 of inhibition of hepcidin-25-induced internalization and degradation of FPN1-GFP [11],Relative IC50 of inhibition of hepcidin-25-induced internalization and degradation of FPN1-GFP [11],Top % Inhibition of hepcidin-25-induced internalization and degradation of FPN1-GFP [11],"EC50 of inhibition of mature hepcidin induced increase in cellular ferritin, Caco-2 cells (human ferroportin 1 [1])","Percentage inhibition of mature hepcidin induced increase in cellular ferritin, Caco-2 cells, Mab at 2.22E-7 M (human ferroportin 1 [1])","Percentage inhibition of mature hepcidin induced increase in cellular ferritin, Caco-2 cells, Mab at 2.47E-8 M (human ferroportin 1 [1])","Percentage inhibition of mature hepcidin induced increase in cellular ferritin, Caco-2 cells, Mab at 2.7E-9 M (human ferroportin 1 [1])","Percentage inhibition of mature hepcidin induced increase in cellular ferritin, Caco-2 cells, Mab at 3.0E-10 M (human ferroportin 1 [1])","Percentage inhibition of mature hepcidin induced increase in cellular ferritin, Caco-2 cells, Mab at 6.67E-7 M (human ferroportin 1 [1])","Percentage inhibition of mature hepcidin induced increase in cellular ferritin, Caco-2 cells, Mab at 7.4E-8 M (human ferroportin 1 [1])","Percentage inhibition of mature hepcidin induced increase in cellular ferritin, Caco-2 cells, Mab at 8.0E-9 M (human ferroportin 1 [1])","Percentage inhibition of mature hepcidin induced increase in cellular ferritin, Caco-2 cells, Mab at 9.0E-10 M (human ferroportin 1 [1])",binding result (rat ferroportin),% Inhibition (human ferroportin 1 [12]),% Inhibition (human ferroportin 1 [13]),% Inhibition (human ferroportin 1 [14]),% Inhibition (human ferroportin 1 [15]),% Inhibition (human ferroportin 1 [16]),other results
"Mouse IgG1, a negative control (antibody)",,,,,,,,,,,,,,,,,,,"% Inhibition of hepcidin-induced ferritin increase in Caco-2 cells, 6.25 µg/mL (human ferroportin 1 [1]): 0%; % Inhibition of hepcidin-induced ferritin increase in Caco-2 cells, 12.5 µg/mL (human ferroportin 1 [1]): 0%; % Inhibition of hepcidin-induced ferritin increase in Caco-2 cells, 25 µg/mL (human ferroportin 1 [1]): 7.2%; % Inhibition of hepcidin-induced ferritin increase in Caco-2 cells, 50 µg/mL (human ferroportin 1 [1]): 0%; % Inhibition of hepcidin-induced ferritin increase in Caco-2 cells, 100 µg/mL (human ferroportin 1 [1]): 3.5%; % Inhibition of hepcidin-induced ferritin increase in Caco-2 cells, 200 µg/mL (human ferroportin 1 [1]): 11.6%; Ferritin (ng)/protein (µg) in hepcidin-treated Caco-2 cells, 6.25 µg/mL (ng ferritin/µg protein) (human ferroportin 1 [1]): 10.4; Ferritin (ng)/protein (µg) in hepcidin-treated Caco-2 cells, 12.5 µg/mL (ng ferritin/µg protein) (human ferroportin 1 [1]): 10; Ferritin (ng)/protein (µg) in hepcidin-treated Caco-2 cells, 25 µg/mL (ng ferritin/µg protein) (human ferroportin 1 [1]): 9.6; Ferritin (ng)/protein (µg) in hepcidin-treated Caco-2 cells, 50 µg/mL (ng ferritin/µg protein) (human ferroportin 1 [1]): 10.1; Ferritin (ng)/protein (µg) in hepcidin-treated Caco-2 cells, 100 µg/mL (ng ferritin/µg protein) (human ferroportin 1 [1]): 9.78; Ferritin (ng)/protein (µg) in hepcidin-treated Caco-2 cells, 200 µg/mL (ng ferritin/µg protein) (human ferroportin 1 [1]): 9.4; % Inhibition [2]: 0.5%; % Inhibition [3]: -3.4%; % Inhibition [4]: -4%; % Inhibition [5]: -11%"
control IgG (antibody),,,,,,,,,,,,,,,,,,,% Inhibition (human ferroportin 1 [6]): 1.9%; % Inhibition (human ferroportin 1 [7]): -0.7%; % Inhibition (human ferroportin 1 [8]): 2.5%; % Inhibition (human ferroportin 1 [9]): -2.5%; % Inhibition (human ferroportin 1 [10]): 7.9%
"Mab 4A10-3 (antibody, human IgG4 S228P, kappa, F234A L235A, V domains shown) VH: QVQLVQSGAEVKKPGSSVKVSCKASGYAFTSFLIEWVRQAPGQGLEWMGTSNPRTGGRKYKEKFRGRVTITADKSTSTAYMELSSLRSEDTAVYYCAREFFDYWGQGTTVTVSS VL: DIQMTQSPSSLSASVGDRVTITCRASKSISKYTAWYQQKPGKAPKLLIYAGSKLHWGVPSRFSGSGSGTDFTLTISSLQPEDFATYYCQQHNEYPYTFGGGTKVEIKR",5.7 nM,4.7 nM,85.9%,37 nM,59.6%,36.2%,24.9%,12%,61.9%,45.6%,28%,19.5%,no binding,59.3%,84.9%,5.4%,95.3%,13.4%,
"Mab Combi11 (antibody, human IgG4 S228P, kappa, F234A L235A, V domains shown) VH: QVQLVQSGAEVKKPGSSVKVSCKASGYAFTSFLIEWVRQAPGQGLEWMGTSNPRTGRTKYKSKFRGRVTITADKSTSTAYMELSSLRSEDTAVYYCAREFFDYWGQGTTVTVSS VL: DIQMTQSPSSLSASVGDRVTITCRASKSISKYTAWYQQKPGKAPKLLIYAGSKRHWGVPSRFSGSGSGTDFTLTISSLQPEDFATYYCQQHNEYPYTFGGGTKVEIKR",3.8 nM,3.7 nM,92.6%,28 nM,69.3%,45.3%,34.8%,14.2%,75.2%,61.1%,31.6%,23.3%,no binding,88.4%,81.6%,18.7%,79.9%,32.1%,
